Experimental data from US20170210812A1.

Assays:
[1] = molecular target: EGFRvIII expressed on cells (human) (UniProt P00533); test: cell-based or functional assay
[2] = molecular target: wild-type EGFR expressed on cells (human) (UniProt P00533); test: cell-based or functional assay

| Binder | percentage of live target cells, LN229-EGFRvIII with activated T cells, 0.01 nM antibody [1] [%] | percentage of live target cells, parental LN229 with activated T cells, 0.01 nM antibody [2] [%] | percentage of live target cells, DKMG with activated T cells, 1 nM antibody [1] [%] | percentage of live target cells, LN18-EGFRvIII with activated T cells, 0.01 nM antibody [1] [%] | percentage of live target cells, parental LN18 with activated T cells, 0.01 nM antibody [2] [%] |
| --- | --- | --- | --- | --- | --- |
| 42G9/CD3 biFc (bispecific antibody, part only; not given: anti-CD3 arm and Fc, V domains shown, part only) VH: QVTLKESGPVLLKPTETLTLTCTVSGFSLSNPRMGVSWIRQPPGKALEWFAHIFSTDEKSLKLSLRSRLTLSKDTSKSQVVLTMTNMAPVDSATYYCARDSSNYEGYFDFWGQGTLVTVSS VL: EVVLTQSPATLSVSPGERATLSCRASQSVRSNLAWYQQKSGQAPRLLIYGSTIRATGVPARFSGSGSGTEFTLTISSLQSEDFAVYYCQQYSDWPFTFGPGTKVDIK | 35 | 100 |  |  |  |
| h62G7-EQ/L6/CD3 biFc (bispecific antibody, part only; not given: anti-CD3 arm and Fc, V domains shown, part only) VH: QVQLVQSGAEVKKPGASVKVSCKASGYTFTDYTLHWVRQAPGQGLEWMGGIWPITGGTTYNQKFKGRVTMTRDTSTSTVYMELSSLRSEDTAVYYCARGEAQGSWGQGTLVTVSS VL: DVVMTQSPLSLPVTLGQPASISCKSSQSLLYSNGKTYLNWFQQRPGQSPRRLIYQVSKLDSGVPDRFSGSGSGTDFTLKISRVEAEDVGVYYCGQDTHFPLTFGGGTKVEIK |  |  | 35 | 20 | 100 |
